Measured values published in patent US20240100162A1 (Amgen, published 2024).

Biological target: MAGE-B2 peptide-MHC (…/HLA-A*02:01) on cells (human)
Test: cell-based or functional assay

B1: TCR2 (TCR, V domains shown)
V domain 1: QKEVEQNSGPLSVPEGAIASLNCTYSDRGSQSFFWYRQYSGKSPELIMSIYSNGDKEDGRFTAQLNKASQYVSLLIRDSQPSDSATYLCAVNIPFSNSGGYQKVTFGTGTKLQVIP
V domain 2: NAGVTQTPKFRVLKTGQSMTLLCAQDMNHEYMYWYRQDPGMGLRLIHYSVGEGTTAKGEVPDGYNVSRLKKQNFLLGLESAAPSQTSVYFCASRHPGQYNQPQHFGDGTRLSILE
E:T EC50, cytotoxicity against MAGE-B2+ MAGE-A4+ cancer cell lines: 0.01 E:T ratio
E:T EC50, cytotoxicity against MAGE-B2+ MAGE-A4- cancer cell lines: ~0.07 E:T ratio
EC90 (peptide concentration), T2/peptide cytotoxicity assay: ≤ 10 nM

B2: TCR1 (TCR, V domains shown)
V domain 1: KQEVTQIPAALSVPEGENLVLNCSFTDSAIYNLQWFRQDPGKGLTSLLLIQSSQREQTSGRLNASLDKSSGRSTLYIAASQPGDSATYLCAAMKTSYDKVIFGPGTSLSVIP
V domain 2: GEEVAQTPKHLVRGEGQKAKLYCAPIKGHSYVFWYQQVLKNEFKFLISFQNENVFDETGMPKERFSAKCLPNSPCSLEIQATKLEDSAVYFCASSQGQGGYGYTFGSGTRLTVVE
EC90 (peptide concentration), T2/peptide cytotoxicity assay: ≤ 10 nM

B3: TCR3 (TCR, V domains shown)
V domain 1: AQKVTQAQTEISVVEKEDVTLDCVYETRDTTYYLFWYKQPPSGELVFLIRRNSFDEQNEISGRYSWNFQKSTSSFNFTITASQVVDSAVYFCALSVLRMDSSYKLIFGSGTRLLVRP
V domain 2: NAGVTQTPKFRVLKTGQSMTLLCAQDMNHEYMYWYRQDPGMGLRLIHYSVGEGTTAKGEVPDGYNVSRLKKQNFLLGLESAAPSQTSVYFCASSLQGAGQPQHFGDGTRLSILE
EC90 (peptide concentration), T2/peptide cytotoxicity assay: ≤ 10 nM
